The record followed here is the nanobody polyreactivity screen of Harvey et al. (2022).

This data set can be described thus: yeast display, Sf9 membrane polyspecificity reagent, FACS + sequencing; frameworks hold sequencing errors. Put shortly: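 After 36–48 hours of galactose induction, yeast (Saccharomyces cerevisiae BJ5465) displaying a synthetic nanobody library were stained at 4 °C for 1 hour with 10% biotinylated, detergent-solubilized Sf9 membrane reagent. Streptavidin microbeads enriched the stained cells before FACS sorting into low and high (top ~1%) gates on anti-HA and streptavidin fluorescence. Each clone's polyreactivity label reflects its gate of origin.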
“QVQLVESGGGLVQAGGSLRLSCAASGITFYEYAMGWYRQAPGKERELVATITSGGNTNYADSVKGRFTISRDNAKNTVYLQMNSLKPEDTAVYYCNKEWDGDGYTDDWDYDYWGQGTQVTVSS”: the “polyreactivity (PSR sort gate)” value is listed as “low polyreactivity”.
As to “QVQLVESGGGLVQAGGSLRLSCAASGITFYFYAMGWYRQAPGKERELVARITSRGTRTYYADSVKGRFTISRDNAKNTVYLQMNSLKPEDTAVYYCAAGVSWDDYYWGQGTQVTVSS”, the “polyreactivity (PSR sort gate)” value is recorded as “high polyreactivity”.
Regarding “QVQLVESGGGLVQAGGSLRLSCAASGITFYFYAMGWYRQAPGKERELVASITSSGSTDYADSVKGRFTISRDNAKNTVYLQMNSLKPEDTAVSYCAADVQKHFYSFGDERGFPFDYWGQGTQVTVSS”, the “polyreactivity (PSR sort gate)” value was “low polyreactivity”.
For the sequence “QVQLVESGGGLVQAGGSLRLSCAASGITFYFYVMGWYRQAPGKERELVADISTSDDSTYYADSVKGRFTISRDNAKNTVYLQMNSLKPEDTAVYYCATATRTYSAWYEYDYWGQGTQVTVSS”, the “polyreactivity (PSR sort gate)” value is “low polyreactivity”.
Regarding “QVQLVESGGGLVQAGGSLRLSCAASGITFYGNAMGWYRQAPGKERELVAAISSSGGTTYYADSVKGRFTISRDNAKNTVYLQMNSLIPEDTAVYYCNALHPVVYYGTYFNLRRYDYWGQGTQVTVSS”, the “polyreactivity (PSR sort gate)” value was “low polyreactivity”.
For “QVQLVESGGGLVQAGGSLRLSCAASGITFYGYAMAWYRQAPGKERELVATITSGGSTYYADSVKGRFTISRDNAKNTVYLQMNSLKPEDTAVYYCAASRWYRRTRYGYWGQGTQVTVSS” the value was “high polyreactivity”; for “QVQLVESGGGLVQAGGSLRLSCAASGITFYGYAMGWYRQAPGKERELVAAISRSGGSTYYADSVKGRFTISRDHAKNTVYVQMNSLKPEDTAVYYCNTDYGSSYNYWGQGTQVTVSS”, “high polyreactivity”.
For “QVQLVESGGGLVQAGGSLRLSCAASGITFYGYAMGWYRQAPGKERELVARITISGRTNYADYVKGRFTISRDNAKNTVYLQMNSLKPEDTAVYYCNAVYRGYYSGELDYWGQGTQVTVSS” the value was “high polyreactivity”; for “QVQLVESGGGLVQAGGSLRLSCAASGITFYGYAMGWYRQAPGQERELVAAISSRGGSTYYADSVKGRFTISRDNAKNTVYLQMNSLKPEDTAVYNCAAVYYTGEYYYWGQGTQVTVSS”, “high polyreactivity”.
For “QVQLVESGGGLVQAGGSLRLSCAASGITFYGYDMGWYRQAPGKERELFAAISRSGGSTYYADSVKGRFTISRDNAKNTVYLQMNSLKPEDTAVYYCAADKQGYLGRTAFRYYYWGQGTQVTVSS” the value was “high polyreactivity”.
Consider “QVQLVESGGGLVQAGGSLRLSCAASGITFYGYDMGWYRQAPGKERELVAAITSDGITNYADSVKGRFTISRDNAKNTVYLQMNSLKPEDTAVYYCAADLSFYRRYEWYYYWGQGTQVTVSS”, for which the “polyreactivity (PSR sort gate)” value was “low polyreactivity”.
For “QVQLVESGGGLVQAGGSLRLSCAASGITFYINAMGWYRQAPGKERELVAVIDSRGSSTFYADSVKGRFTISRDNAKNTVYLVMKSLKPEDTAVYYCAAEPFWDYYATFYWKYGYWGQGTQVTVSS”, the “polyreactivity (PSR sort gate)” value is on record as “low polyreactivity”.
Consider “QVQLVESGGGLVQAGGSLRLSCAASGITFYIYAMGWYRQAPGKERELVATISWSDGRTYYADSVKGRFTISRDNAKNTVYCQMNSLKPEDTAVYYCAADWWYYQFDYEYWGQGTQVTVSS”, for which the “polyreactivity (PSR sort gate)” value is reported as “low polyreactivity”.
For “QVQLVESGGGLVQAGGSLRLSCAASGITFYIYAMGWYRQAPGKERELVATISWSDGRTYYADSVKGRFTISRDNAKNTVYLQINSLKPEDTAVYYCAADWWYYQFDYEYWGQGTQVTVSS” the value was “low polyreactivity”; for “QVQLVESGGGLVQAGGSLRLSCAASGITFYKKVMGWYRPAPGKEKELVAAISSSGGSTYYADSVKGRFTISRDNAKNTVYLQRNSLKPEDTAVYYCAADDPLYTPYEFDYWGQGTQVTVSS”, “low polyreactivity”; for “QVQLVESGGGLVQAGGSLRLSCAASGITFYLYAMGWYRQAPGKERELVAAISSSGGRTYYADSVKGRFTISRDNAKNTVYLQMNSLKPEDTAVYYCAARRYGVPPTYDYWGQGTQVTVSS”, “high polyreactivity”.
